Measured values: US20170115280A1

Tests used:
[1] = biological target: reconstituted nascent HDL (rHDL) particle made with isolated human apoA-I (human) (UniProt P02647); test: SPR (BIAcore 3000), rHDL immobilized on CM5 chip, rPON1 500-2000 nM in flow
[2] = biological target: reconstituted nascent HDL (rHDL) particle made with isolated human apoA-I (human) (UniProt P02647); test: SPR, rHDL immobilized on CM5 chip
[3] = biological target: reconstituted nascent HDL (rHDL) particle made with isolated human apoA-I (human) (UniProt P02647); test: SPR (BIAcore 3000), rHDL immobilized on CM5 chip, apparent Kd, 1:1 binding with drifting baseline

Chain of reconstituted nascent HDL (rHDL) particle made with isolated human apoA-I (human) (P02647 25-267 limits assumed): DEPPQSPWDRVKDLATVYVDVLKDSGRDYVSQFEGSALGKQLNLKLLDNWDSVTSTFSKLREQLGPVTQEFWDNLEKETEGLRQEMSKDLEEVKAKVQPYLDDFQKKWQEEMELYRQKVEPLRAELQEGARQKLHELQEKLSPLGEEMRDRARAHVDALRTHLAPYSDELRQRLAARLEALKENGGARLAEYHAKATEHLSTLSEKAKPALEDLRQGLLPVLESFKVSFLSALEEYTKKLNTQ

Row | koff [1] | fold less binding capacity compared with rPON1 WT [2] | kon [1] | Kd [3] | Substance
1 | 6e-05 s⁻¹ | 1000 fold | – | – | rPON1 pan K mutant (Leu9→Lys9, Tyr185→Lys185 and Tyr293→Lys293) with C-terminal His8 tag (enzyme)
2 | 8.5e-07 s⁻¹ | – | 1200 M⁻¹ s⁻¹ | 0.00071 µM | recombinant paraoxonase 1 (PON1) variant G3C9, His-tagged (rPON1 WT) (enzyme)
3 | 0.05 s⁻¹ | – | 850 M⁻¹ s⁻¹ | 59 µM | rPON1 pan E mutant (Leu9→Glu9, Tyr185→Glu185 and Tyr293→Glu293) with C-terminal His8 tag (enzyme)
